± gives the uncertainty stated by the source.

The data set can be described thus: self-splicing fitness, log relative to wild type (ln ratio); higher = more splicing; Tetrahymena group I intron in knt gene, E. coli kanamycin selection, DiMSum; sequences stand for … in CUCUCU…GGAGGGAAAAGUUAUCAGGCAUGCACCUGGUAGCUAGUCUUUAAACCAAUAGAUUGCAUCGGUUUAAAAGGCAAGACCGUCAAAUUGCGGGAAAGGGGUCAACAGCCGUUCAGUACCAAGUCUCAGGGGAAACUUUGAGAUGGCCUUGCAAAGGGUAUGGUAAUAAGCUGACGGACAUGGUCCUAACCACGCAGCCAAGUCCUAAGUCAACAGAUCUUCUGUUGAUAUGGAUGCAGUUCACAGACUAAAUGUCGGUCGGGGAAGAUGUAUUCUUCUCAUAAGAUAUAGUCGGACCUCUCCUUAAUGGGAGCUAGCGGAUGAAGUGAUGCAACACUGGAGCCGCUGGGAACUAAUUUGUAUGCGAAAGUAUAUUGAUUAGUUUUGGAGUACUCGUGGUCG
An outline of the steps:
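Library with all eight P1ex-region intron nucleotides randomised, intron inside the knt kanamycin-resistance gene on pET-22b(+), in E. coli BL21(DE3). Cells grew overnight at 37°C or 30°C on LB agar with or without 25 μg/mL kanamycin (plus 100 μg/mL carbenicillin, 50 μM IPTG, 0.2% rhamnose), in six replicate transformations. Pooled colonies were amplicon-sequenced on Illumina HiSeq 2500. DiMSum fitness is the error-weighted combination of wild-type-normalised replicate fold changes, kanamycin versus none.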

In the case of UCGCAGCAAUAUUACGUAAU, the “self-splicing fitness (ln)” value is, setting by setting: (30 °C) -3.39 ± 0.15; (37 °C) -2.19 ± 0.21.
The matching figures for ACCCAGCAAUAUUACGUCAU: -1.84 ± 0.049 and -0.414 ± 0.059.
In the case of CCUAAGCAAUAUUACGCCUU, the “self-splicing fitness (ln)” value runs as follows: (30 °C) -3.22 ± 0.21; (37 °C) -2.79 ± 0.26.
The matching figures for GCACAGCAAUAUUACGCGGG: -2.13 ± 0.069 and -1.39 ± 0.081.
The matching figures for CAUUAGCAAUAUUACGGAUA: -2.16 ± 0.12 and -1.42 ± 0.13.
The matching figures for GUCGAGCAAUAUUACGGCAU: -1.04 ± 0.067 and 0.111 ± 0.083.
CCAGAGCAAUAUUACGUCGC: the “self-splicing fitness (ln)” value is, setting by setting: (30 °C) -3.95 ± 0.32; (37 °C) -2.49 ± 0.29.
The matching figures for UAGCAGCAAUAUUACGUCAU: -3.68 ± 0.17 and -1.52 ± 0.13.
The matching figures for UCUGAGCAAUAUUACGCGAG: -3.09 ± 0.2 and -2.28 ± 0.24.
In the case of CGCUAGCAAUAUUACGAUUC, the “self-splicing fitness (ln)” value is -3.29 ± 0.36 (30 °C) and -2.12 ± 0.21 (37 °C).
The matching figures for CAAGAGCAAUAUUACGAGGU: -4.09 ± 0.24 and -2.71 ± 0.23.
The matching figures for CCCCAGCAAUAUUACGAUAG: -3.16 ± 0.1 and -3.25 ± 0.17.
Regarding CCAUAGCAAUAUUACGGGAC, the “self-splicing fitness (ln)” value (37 °C) was -2.82 ± 0.28.
On to CCGCAGCAAUAUUACGAUUC, for which the “self-splicing fitness (ln)” value by setting is: (30 °C) -3.56 ± 0.19; (37 °C) -3.03 ± 0.21.
As to UGUGAGCAAUAUUACGAAAC, the “self-splicing fitness (ln)” value (37 °C) is -1.59 ± 0.35.
For the sequence AAAUAGCAAUAUUACGCUCG, the “self-splicing fitness (ln)” value is, setting by setting: (30 °C) -0.663 ± 0.12; (37 °C) -0.925 ± 0.15.
Regarding AGAGAGCAAUAUUACGAAAU, the “self-splicing fitness (ln)” value is -3.71 ± 0.33 (30 °C) and -1.89 ± 0.24 (37 °C).
The matching figures for AGGAAGCAAUAUUACGUGAG: -0.821 ± 0.1 and -1.57 ± 0.14.
The matching figures for CCACAGCAAUAUUACGAAGC: -3.85 ± 0.2 and -2.3 ± 0.15.
The matching figures for AGUGAGCAAUAUUACGGUUC: -2.21 ± 0.26 and -1.7 ± 0.38.
On to CCAAAGCAAUAUUACGGUAU, for which the “self-splicing fitness (ln)” value (30 °C) was -3.41 ± 0.18 and the “self-splicing fitness (ln)” value (37 °C) was -2.08 ± 0.25.
Turning to GAUAAGCAAUAUUACGAGCG, the “self-splicing fitness (ln)” value runs as follows: (30 °C) -1.25 ± 0.1; (37 °C) -0.755 ± 0.11.
As to GUAAAGCAAUAUUACGCGUA, the “self-splicing fitness (ln)” value runs as follows: (30 °C) -1.25 ± 0.094; (37 °C) -0.105 ± 0.12.
The matching figures for AGCGAGCAAUAUUACGCGGA: -3.21 ± 0.21 and -2.45 ± 0.19.
The matching figures for AGGAAGCAAUAUUACGCAAU: -2.58 ± 0.25 and -2 ± 0.21.
Take AUUCAGCAAUAUUACGAGUU: the “self-splicing fitness (ln)” value is, setting by setting: (30 °C) -2.76 ± 0.16; (37 °C) -1.39 ± 0.13.
The matching figures for AUAUAGCAAUAUUACGGGGG: -2.92 ± 0.36 and -0.973 ± 0.28.
The matching figures for CUGCAGCAAUAUUACGCCCG: -0.269 ± 0.098 and 0.148 ± 0.13.
The matching figures for ACGUAGCAAUAUUACGUGGU: -4.03 ± 0.18 and -1.13 ± 0.094.
Take CAGUAGCAAUAUUACGCAGA: the “self-splicing fitness (ln)” value was -2.68 ± 0.37 (30 °C) and -2.43 ± 0.3 (37 °C).
With UAGAAGCAAUAUUACGUAAU, the “self-splicing fitness (ln)” value is, setting by setting: (30 °C) -3.43 ± 0.22; (37 °C) -1.39 ± 0.18.
The matching figures for UAUCAGCAAUAUUACGGCGA: -0.382 ± 0.1 and 1.02 ± 0.13.
The matching figures for GUUUAGCAAUAUUACGGGGU: -3.3 ± 0.35 and -2.29 ± 0.2.
Take CGCAAGCAAUAUUACGCAAA: the “self-splicing fitness (ln)” value was -1.92 ± 0.22 (30 °C) and -2.99 ± 0.37 (37 °C).
The matching figures for CCCGAGCAAUAUUACGCACU: -2.78 ± 0.25 and -3 ± 0.27.
The matching figures for AAAGAGCAAUAUUACGAACA: -2.07 ± 0.35 and -2.02 ± 0.4.
Regarding UAAGAGCAAUAUUACGCAGU, the “self-splicing fitness (ln)” value (37 °C) is -2.38 ± 0.28.
CCCGAGCAAUAUUACGCCGA: the “self-splicing fitness (ln)” value was -3.02 ± 0.39 (30 °C) and -2.14 ± 0.36 (37 °C).
The matching figures for UAAGAGCAAUAUUACGACGC: -2.96 ± 0.32 and -2.07 ± 0.43.
As for AGGCAGCAAUAUUACGGGAU, the “self-splicing fitness (ln)” value is -2.85 ± 0.16 (30 °C) and -1.39 ± 0.14 (37 °C).
The matching figures for AGCAAGCAAUAUUACGCAGG: -2.95 ± 0.16 and -1.63 ± 0.12.
The matching figures for GGGAAGCAAUAUUACGCCAU: -3.31 ± 0.25 and -0.83 ± 0.25.
In the case of GAAGAGCAAUAUUACGCGAC, the “self-splicing fitness (ln)” value was -3.8 ± 0.36 (30 °C) and -1.18 ± 0.18 (37 °C).
The matching figures for UUGCAGCAAUAUUACGUAUC: -3.83 ± 0.16 and -2.4 ± 0.15.
The matching figures for GUUCAGCAAUAUUACGUUGG: -2.92 ± 0.17 and -1.62 ± 0.15.
On to CGAGAGCAAUAUUACGGUGA, for which the “self-splicing fitness (ln)” value is -3.9 ± 0.22 (30 °C) and -2.44 ± 0.2 (37 °C).
For GACCAGCAAUAUUACGCAGA, the “self-splicing fitness (ln)” value (30 °C) was -1.57 ± 0.11 and the “self-splicing fitness (ln)” value (37 °C) was -0.378 ± 0.093.
The matching figures for UAAUAGCAAUAUUACGAACC: -3.22 ± 0.49 and -2.27 ± 0.39.
The matching figures for GUAAAGCAAUAUUACGGGAC: -1.62 ± 0.12 and -1.18 ± 0.11.
The matching figures for AGUAAGCAAUAUUACGUAGG: -3.99 ± 0.19 and -3.09 ± 0.22.
As to AAGGAGCAAUAUUACGGUUC, the “self-splicing fitness (ln)” value was -1.51 ± 0.17 (30 °C) and -2.92 ± 0.35 (37 °C).
The matching figures for CCGUAGCAAUAUUACGCGCA: -3.09 ± 0.3 and -1.69 ± 0.4.
On to GAACAGCAAUAUUACGACUU, for which the “self-splicing fitness (ln)” value by setting is: (30 °C) -0.206 ± 0.072; (37 °C) 0.314 ± 0.088.
The matching figures for CUGCAGCAAUAUUACGUCUU: -3.15 ± 0.11 and -2.64 ± 0.12.
With GCAUAGCAAUAUUACGUAUU, the “self-splicing fitness (ln)” value reads like this: (30 °C) -3.09 ± 0.16; (37 °C) -2.04 ± 0.17.
The matching figures for GCCAAGCAAUAUUACGGGAU: -0.936 ± 0.075 and -0.693 ± 0.099.
Consider AAGCAGCAAUAUUACGGCUU, for which the “self-splicing fitness (ln)” value (30 °C) was -3.42 ± 0.14 and the “self-splicing fitness (ln)” value (37 °C) is -0.925 ± 0.12.
Take CGUGAGCAAUAUUACGUUGG: the “self-splicing fitness (ln)” value reads like this: (30 °C) -2.62 ± 0.12; (37 °C) -1.45 ± 0.11.
The matching figures for GAUAAGCAAUAUUACGUGCA: -0.463 ± 0.15 and -1.06 ± 0.18.
Take AAGAAGCAAUAUUACGAAUA: the “self-splicing fitness (ln)” value is -1.86 ± 0.17 (30 °C) and -0.73 ± 0.12 (37 °C).
The matching figures for AGCCAGCAAUAUUACGACGA: -1.97 ± 0.1 and -1.76 ± 0.12.
Regarding AGCUAGCAAUAUUACGGUGU, the “self-splicing fitness (ln)” value (30 °C) is -2.56 ± 0.11 and the “self-splicing fitness (ln)” value (37 °C) was -1.22 ± 0.11.
The matching figures for GUAUAGCAAUAUUACGUGUU: -3.38 ± 0.18 and -1.63 ± 0.18.
Take AGAUAGCAAUAUUACGGUCG: the “self-splicing fitness (ln)” value is, setting by setting: (30 °C) -0.105 ± 0.12; (37 °C) -0.324 ± 0.15.
The matching figures for ACGUAGCAAUAUUACGUCCA: -1.02 ± 0.14 and -1.13 ± 0.15.
The matching figures for GGAUAGCAAUAUUACGACCU: 0.689 ± 0.32 and 0.93 ± 0.25.
Regarding ACCAAGCAAUAUUACGAAGA, the “self-splicing fitness (ln)” value was -4.11 ± 0.24 (30 °C) and -1.56 ± 0.14 (37 °C).
Consider GACGAGCAAUAUUACGUCGC, for which the “self-splicing fitness (ln)” value is -3.25 ± 0.47 (30 °C) and -0.634 ± 0.35 (37 °C).
Consider AGGGAGCAAUAUUACGGAUU, for which the “self-splicing fitness (ln)” value (30 °C) is -4.58 ± 0.38 and the “self-splicing fitness (ln)” value (37 °C) is -2.67 ± 0.31.
The matching figures for CCGUAGCAAUAUUACGGUCU: -3.01 ± 0.21 and -2.2 ± 0.18.
Regarding AAAGAGCAAUAUUACGAUGG, the “self-splicing fitness (ln)” value by setting is: (30 °C) -3.63 ± 0.33; (37 °C) -1.89 ± 0.25.
UCGAAGCAAUAUUACGCGAG: the “self-splicing fitness (ln)” value (30 °C) was -1.47 ± 0.074 and the “self-splicing fitness (ln)” value (37 °C) is -0.905 ± 0.1.
In the case of UAGAAGCAAUAUUACGCCUC, where the note is “30 °C”, the “self-splicing fitness (ln)” value is -2.88 ± 0.5.
For GAUCAGCAAUAUUACGGGUC, the “self-splicing fitness (ln)” value (30 °C) is -3.38 ± 0.21 and the “self-splicing fitness (ln)” value (37 °C) is -3.05 ± 0.25.
The matching figures for GCCCAGCAAUAUUACGCUCC: -0.416 ± 0.11 and -0.675 ± 0.12.
The matching figures for UGAUAGCAAUAUUACGGCCG: 0.151 ± 0.1 and 0.324 ± 0.15.
